The source of these data is US20240317855A1 (EUREKA THERAPEUTICS, published 2024).

This data set concerns the target GPC3 (glypican-3) on HEPG2 human liver cancer cells (human, UniProt P51654 25-580). In words: cell-based or functional assay.

Chain of GPC3 (glypican-3) on HEPG2 human liver cancer cells (P51654 25-580): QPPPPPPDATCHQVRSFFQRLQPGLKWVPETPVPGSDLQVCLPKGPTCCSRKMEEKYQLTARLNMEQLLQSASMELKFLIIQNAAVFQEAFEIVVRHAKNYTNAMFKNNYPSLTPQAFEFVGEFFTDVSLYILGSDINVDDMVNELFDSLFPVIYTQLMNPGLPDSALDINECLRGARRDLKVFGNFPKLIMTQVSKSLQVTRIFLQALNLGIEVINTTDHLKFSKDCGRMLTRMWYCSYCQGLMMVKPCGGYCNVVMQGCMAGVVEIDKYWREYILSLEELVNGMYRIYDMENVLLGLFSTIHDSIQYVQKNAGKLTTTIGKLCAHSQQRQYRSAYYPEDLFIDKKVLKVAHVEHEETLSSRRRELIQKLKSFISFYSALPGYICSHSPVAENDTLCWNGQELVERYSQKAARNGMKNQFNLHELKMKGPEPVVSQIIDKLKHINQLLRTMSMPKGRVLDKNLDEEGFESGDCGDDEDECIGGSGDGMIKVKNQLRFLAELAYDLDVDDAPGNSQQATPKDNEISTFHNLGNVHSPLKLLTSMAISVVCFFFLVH

B1: anti-GPC3 CSR (chimeric co-stimulatory receptor: anti-GPC3 scFv fused to CD28 transmembrane and intracellular signaling sequences) (other)
chain: QSVLTQPPSVSAAPGQRVTISCSGTRSNIGSDYVSWYQHLPGTAPKLLVYGDNLRPSGIPDRFSASKSGTSATLGITGLQTGDEADYYCGTWDYTLNGVVFGGGTKLTVLGSRGGGGSGGGGSGGGGSLEMAQVQLVESGGGLVQPGGSLRLSCAASGFTFSSYAMSWVRQAPGKGLEWVSVIYSGGSSTYYADSVKGRFTISRDNSKNTLYLQMNSLRAEDTAVYYCARTSYLNHGDYWGQGTLVTVSSAAAIEVMYPPPYLDNEKSNGTIIHVKGKHLCPSPLFPGPSKPFWVLVVVGGVLACYSLLVTVAFIIFWVRSKRSRLLHSDYMNMTPRRPGPTRKHYQPYAPPRDFAAYRS
B1: the “specific killing of HEPG2 (AFP+/GPC3+) target cells by T cells expressing anti-AFP caTCR-1 (caTCR-1-0 or caTCR-1-TM5) and the anti-GPC3 CSR; Cytox 96 LDH assay, E:T 2.5:1, 16 hr” value was 55 to 65%.
